Test results as given in patent US20190194356A1 (CHANGZHOU BOJIA BIOTECHNOLOGY, published 2019).

Experiments:
[1] = target: T1, human PCSK9 antigen (GeneBank AX127530.1) (human, UniProt Q8NBP7 31-692); assay: cell-based or functional assay
[2] = target: T2, mouse PCSK9 antigen (NCBI NM_153565.2) (mouse, UniProt Q80W65 35-694); assay: BLI (Octet Red 96), antibody on anti-human IgG Fc (AHC) biosensor, PCSK9 in solution, 1:1 model
T2 construct: also called msPCSK9
Protocol: (§1) The ability of PCSK9 mAbs to bind to human, mouse or cynomolgus PCSK9 was characterized using the Octet Red 96 system (ForteBio). A kinetic-grade biosensor (Fortebio, #18-5063) of anti-human IgG Fc (AHC) was immersed in assay buffer after glycine pretreatment at pH 1.7. The PCSK9 monoclonal antibody to be detected was immobilized to the AHC biosensor at a concentration of 10 μg/ml for 120 seconds. The AHC biosensor loaded with the PCSK9 monoclonal antibody was then immersed in human PCSK9 antigen (GeneBank AX127530.1), mouse PCSK9 antigen (NCBI NM_153565.2) or cynomolgus PCSK9 antigen (NCBI NM_001112660.1) of different concentrations and buffer. The final dilution point of the analyte column only contained the detection buffer to test the non-specific binding between the buffer and the loaded biosensor. Antigen-antibody binding was detected from 80 to 120 s, and dissociation was detected from 120 to 180 s. A 60 second baseline was determined with the assay buffer. The affinity curves for anti-PCSK9 monoclonal antibodies were fitted using a 1:1 binding kinetic sensing monovalent binding model.

[3] = target: T1, human PCSK9 antigen (GeneBank …); assay: as above
Protocol: as §1

[4] = target: human PCSK9 mutant protein D374H (human, UniProt Q8NBP7 31-692); assay: BLI (Octet Red 96), antibody on AHC biosensor, PCSK9 mutant in solution
Protocol: as §1
(§2) Human PCSK9 protein had different mutants. It was reported in the literature that there were many human PCSK9 mutants associated with hyperlipidemia. The inventors selected human PCSK9 mutant proteins of R218S, R306S, D374H, and D374Y among them, wherein the ability of PCSK9 mAbs of the invention in binding to different mutant PCSK9 proteins was characterized using the Octet Red 96 system (ForteBio) as described above. The kinetic analysis was shown in FIG. 7 and Table 9, except for R306S, the affinities of other human PCSK9 protein mutants to the PCSK9 monoclonal antibodies of the invention (normal IgG and long half-life IgG forms) were of the same order of magnitude as native human PCSK9 protein. Among them, the kon-binding ability of long half-life PCSK9 monoclonal antibody 9M284-QL to PCSK9 R218S protein was three times higher than that of 9M284 antibody.

[5] = target: human PCSK9 mutant protein D374Y (human, UniProt Q8NBP7 31-692); assay: as above
Protocol: as §1, §2

[6] = target: T3, human PCSK9 mutant protein R218S (human, UniProt Q8NBP7 31-692); assay: as above
T3 construct: also called PCSK9 R218S protein
Protocol: as §1, §2

[7] = target: human PCSK9 mutant protein R306S (human, UniProt Q8NBP7 31-692); assay: as above
Protocol: as §1, §2

[8] = target: neonatal Fc receptor FcRn; assay: ELISA at pH 6.0, antibody coated at 10 µg/mL, His-tagged FcRn titrated, anti-His-Tag-HRP
Protocol: (§3) The target antibody was diluted to 10 μg/mL with coating solution (15 mM Na₂CO₃, 35 mM NaHCO₃, pH 9.6), and then added to a 96-well ELISA plate at a dose of 100 μL/well and incubated at 4° C. overnight for coating. After coating, the sample wells were washed with PBST, pH 7.4 4 times, added with 300 μL/well of 4% skim milk (PBS, pH 7.4), and incubated at 25° C. for 2 hours for blocking. After blocking, the sample wells were washed 4 times with PBST, pH 7.4, added with 100 μL/well of FcRn diluted with 0.4% skim milk dissolved in PBST (pH 6.0/7.4, respectively) (initial concentration 20 μg/mL, 2-fold gradient dilution, with 11 concentration gradients in total), and incubated at 25° C. for 1.5 hours. After incubation, the sample wells were washed 4 times with PBST, pH 6.0/7.4, added with anti-His-Tag-HRP diluted in 0.4% skim milk (1/500) (pH 6.0/7.4, respectively), and incubated at 25° C. for 1 hour. After incubation, the sample wells were washed 4 times with PBST, pH 6.0/7.4, and added with 100 μL/well of TMB for development (development conditions: 25° C., 10 to 15 minutes). After development, 100 μL/well of 1 M […] was added to stop the development reaction, and the absorbance at 450 nm was read out (background correction was performed by the subtraction of the absorbance at 650 nm).

[9] = target: T1, human PCSK9 antigen (GeneBank …); assay: BLI (Octet Red 96), antibody on AHC biosensor, human PCSK9 in solution, 1:1 model
Protocol: as §1
The specific experimental procedures were shown in Example 4 and Example 5. As shown in FIG. 5 and Table 7, the affinity of the long half-life antibody 9M284QL to human PCSK9 protein was substantially identical to 9M284 because the Fab region (containing VH and VL) of the engineered antibody 9M284QL was not changed compared to 9M284. As the affinity was not changed, the long half-life Fc-modified PCSK9 antibody 9M284QL, 9M284YTE and the conventional half-life antibody 9M284 had similar EC50 in the comparative test of cellular LDL uptake experiment, as shown in FIG. 6 and Table 8.

[10] = target: T1, human PCSK9 antigen (GeneBank …); assay: cell-based or functional assay; remark: listed apart in the source
[11] = target: T3, human PCSK9 mutant protein R218S; assay: BLI (Octet Red 96); reference 9M284
Protocol: as §1
Human PCSK9 protein had different mutants. It was reported in the literature that there were many human PCSK9 mutants associated with hyperlipidemia. […]

[12] = target: neonatal Fc receptor FcRn; assay: ELISA at pH 6.0, antibody coated, His-tagged FcRn titrated; reference 9M284
Protocol: as §3

Chain of human PCSK9 mutant protein R306S (Q8NBP7 31-692 R306S limits assumed): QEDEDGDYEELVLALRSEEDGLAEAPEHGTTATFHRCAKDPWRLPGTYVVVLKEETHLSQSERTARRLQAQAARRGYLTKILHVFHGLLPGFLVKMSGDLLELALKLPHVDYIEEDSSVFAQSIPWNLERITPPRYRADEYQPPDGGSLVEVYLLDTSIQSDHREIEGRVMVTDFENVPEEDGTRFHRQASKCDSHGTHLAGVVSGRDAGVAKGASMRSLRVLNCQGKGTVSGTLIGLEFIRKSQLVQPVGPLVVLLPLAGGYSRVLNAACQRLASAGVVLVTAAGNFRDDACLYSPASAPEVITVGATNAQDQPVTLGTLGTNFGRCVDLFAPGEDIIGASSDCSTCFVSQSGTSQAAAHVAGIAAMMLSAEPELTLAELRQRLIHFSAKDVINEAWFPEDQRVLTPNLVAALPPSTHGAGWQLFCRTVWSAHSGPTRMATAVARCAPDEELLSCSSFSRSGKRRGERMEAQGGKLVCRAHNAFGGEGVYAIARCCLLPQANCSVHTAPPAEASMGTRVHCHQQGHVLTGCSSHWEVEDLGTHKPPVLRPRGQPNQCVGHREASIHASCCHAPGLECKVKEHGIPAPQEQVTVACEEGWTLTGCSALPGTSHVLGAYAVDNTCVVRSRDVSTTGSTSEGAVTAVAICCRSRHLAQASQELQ
T3 sequence (Q8NBP7 31-692 R218S limits assumed): as the sequence (Q8NBP7 31-692 R306S limits assumed) above, with R188S, S276R counted along it
Chain of human PCSK9 mutant protein D374Y (Q8NBP7 31-692 D374Y limits assumed): as the sequence (Q8NBP7 31-692 R306S limits assumed) above, with S276R, D344Y counted along it
T1 sequence (Q8NBP7 31-692 limits assumed): as the sequence (Q8NBP7 31-692 R306S limits assumed) above, with S276R counted along it
Chain of human PCSK9 mutant protein D374H (Q8NBP7 31-692 D374H limits assumed): as the sequence (Q8NBP7 31-692 R306S limits assumed) above, with S276R, D344H counted along it
Chain of neonatal Fc receptor FcRn (P55899 24-297, chain 1 of 2): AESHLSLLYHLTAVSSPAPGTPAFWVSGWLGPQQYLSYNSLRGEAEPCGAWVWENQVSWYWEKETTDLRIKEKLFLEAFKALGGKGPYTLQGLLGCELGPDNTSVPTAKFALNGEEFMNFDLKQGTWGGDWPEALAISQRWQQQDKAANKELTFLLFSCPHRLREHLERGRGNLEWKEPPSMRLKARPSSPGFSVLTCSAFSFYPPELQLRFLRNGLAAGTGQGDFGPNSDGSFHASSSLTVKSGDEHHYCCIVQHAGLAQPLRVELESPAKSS
Chain of neonatal Fc receptor FcRn (P61769 21-119, chain 2 of 2, further chain): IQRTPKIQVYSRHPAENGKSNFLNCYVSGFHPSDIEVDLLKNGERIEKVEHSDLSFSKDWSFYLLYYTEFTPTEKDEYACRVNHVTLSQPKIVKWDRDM
T2 sequence (Q80W65 35-694 limits assumed): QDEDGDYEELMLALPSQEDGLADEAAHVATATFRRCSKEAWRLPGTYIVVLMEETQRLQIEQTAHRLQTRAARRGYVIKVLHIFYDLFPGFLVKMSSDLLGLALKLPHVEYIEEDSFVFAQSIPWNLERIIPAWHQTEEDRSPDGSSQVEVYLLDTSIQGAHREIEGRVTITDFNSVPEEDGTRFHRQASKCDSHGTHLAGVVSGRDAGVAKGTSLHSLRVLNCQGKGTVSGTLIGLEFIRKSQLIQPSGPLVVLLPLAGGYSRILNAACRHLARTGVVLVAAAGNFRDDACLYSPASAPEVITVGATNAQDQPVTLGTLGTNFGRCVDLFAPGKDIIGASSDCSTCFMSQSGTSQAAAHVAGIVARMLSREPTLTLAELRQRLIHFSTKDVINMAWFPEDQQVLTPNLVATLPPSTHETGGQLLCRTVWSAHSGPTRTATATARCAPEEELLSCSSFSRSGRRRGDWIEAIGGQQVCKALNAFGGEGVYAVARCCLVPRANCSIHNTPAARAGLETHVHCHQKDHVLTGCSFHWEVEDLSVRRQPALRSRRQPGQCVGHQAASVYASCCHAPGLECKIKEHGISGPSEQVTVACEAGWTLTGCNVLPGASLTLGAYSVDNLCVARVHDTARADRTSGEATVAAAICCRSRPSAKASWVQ

Binder	IC50, cellular LDL uptake assay (HepG2 cells, Dil-LDL, 20 µg/ml human PCSK9) [1]	Kd [2]	koff [2]	kon [2]	Kd [3]	koff [3]	kon [3]	Kd [4]	koff [4]	kon [4]	Kd [5]	koff [5]	kon [5]	Kd [6]	koff [6]	kon [6]	Kd [7]	koff [7]	EC50 [8]	EC50, cellular LDL uptake experiment [10]	also measured
monoclonal antibody 9M283 (antibody, human IgG2, lambda, V domains shown, the claims call them variable regions; also called PCSK9 monoclonal antibody 9M283) VH: QVQLVQSGAEVKKPGSSVKVSCKASAFTFDSFGMHWVRQAPGQGLEWMGLLWSDGSDEYYADSAKGRFTISRDNSKNTLYLQMNSLRSDDTAVYYCARALGAIYSYYAMDVWGQGTTVTVSS VL: QSALTQPPSVSGSPGQSVTISCTGTSSNIGNQFVSWYQQLPGTAPKLMIYEYNKRPSGVPDRFSGSKSGNTASLTISGLQTGDEADYYCGSWDSSLSGYVFGTGTRVTVLG	6.12 nM	14 nM	0.0051 s⁻¹	350000 M⁻¹ s⁻¹	< 1 pM	< 1e-07 s⁻¹	399000 M⁻¹ s⁻¹	–	–	–	–	–	–	–	–	–	–	–	–	–	–
monoclonal antibody 9M284 (antibody, human IgG2, lambda, Fully human antibody from a phage library; the claims call 24 and 26 variable regions; also called PCSK9 monoclonal antibody 9M284) heavy: QVQLVQSGAEVKKPGSSVKVSCKASAFTFDSFGMHWVRQAPGQGLEWMGLLWSDGSGEYYADSAKGRFTISRDNSKNTLYLQMNSLRSDDTAVYYCARAMGAIYYYYAMDVWGQGTTVTVSSASTKGPSVFPLAPCSRSTSESTAALGCLVKDYFPEPVTVSWNSGALTSGVHTFPAVLQSSGLYSLSSVVTVPSSNFGTQTYTCNVDHKPSNTKVDKTVERKCCVECPPCPAPPVAGPSVFLFPPKPKDTLMISRTPEVTCVVVDVSHEDPEVQFNWYVDGVEVHNAKTKPREEQFNSTFRVVSVLTVVHQDWLNGKEYKCKVSNKGLPAPIEKTISKTKGQPREPQVYTLPPSREEMTKNQVSLTCLVKGFYPSDIAVEWESNGQPENNYKTTPPMLDSDGSFFLYSKLTVDKSRWQQGNVFSCSVMHEALHNHYTQKSLSLSPG light: QSALTQPPSVSGSPGQSVTISCTGTSSNIGNQFVSWYQQLPGTAPKLMIYEYNKRPSGVPDRFSGSKSGNTASLTISGLQTGDEADYYCGSWDSSLSGYVFGTGTRVTVLGQPKAAPSVTLFPPSSEELQANKATLVCLISDFYPGAVTVAWKADSSPVKAGVETTTPSKQSNNKYAASSYLSLTPEQWKSHRSYSCQVTHEGSTVEKTVAPTECS	5.75 nM	3 nM	0.00094 s⁻¹	320000 M⁻¹ s⁻¹	< 1 pM	< 1e-07 s⁻¹	366000 M⁻¹ s⁻¹	< 1 pM	< 1e-07 s⁻¹	24900 M⁻¹ s⁻¹	< 1 pM	< 1e-07 s⁻¹	21800 M⁻¹ s⁻¹	< 1 pM	< 1e-07 s⁻¹	11400 M⁻¹ s⁻¹	2.4 nM	8.14e-05 s⁻¹	71.9 µg/mL	4.52 µg/mL	kon [7]: 33900 M⁻¹ s⁻¹; Kd [9]: < 1 pM; koff [9]: < 1e-07 s⁻¹; kon [9]: 56000 M⁻¹ s⁻¹
monoclonal antibody 9M284QL (antibody, also called long half-life PCSK9 monoclonal antibody 9M284-QL) heavy: not shown light: QSALTQPPSVSGSPGQSVTISCTGTSSNIGNQFVSWYQQLPGTAPKLMIYEYNKRPSGVPDRFSGSKSGNTASLTISGLQTGDEADYYCGSWDSSLSGYVFGTGTRVTVLGQPKAAPSVTLFPPSSEELQANKATLVCLISDFYPGAVTVAWKADSSPVKAGVETTTPSKQSNNKYAASSYLSLTPEQWKSHRSYSCQVTHEGSTVEKTVAPTECS	–	–	–	–	–	–	–	< 1 pM	< 1e-07 s⁻¹	26900 M⁻¹ s⁻¹	< 1 pM	< 1e-07 s⁻¹	29700 M⁻¹ s⁻¹	< 1 pM	< 1e-07 s⁻¹	36500 M⁻¹ s⁻¹	1.46 nM	4.64e-05 s⁻¹	25 µg/mL	5.28 µg/mL	fold higher kon than 9M284 [11]: 3 fold; fold smaller EC50 than 9M284 [12]: 2.8 fold; kon [7]: 31800 M⁻¹ s⁻¹; Kd [9]: < 1 pM; koff [9]: < 1e-07 s⁻¹; kon [9]: 58500 M⁻¹ s⁻¹
monoclonal antibody 9M284YTE (antibody) heavy: QVQLVQSGAEVKKPGSSVKVSCKASAFTFDSFGMHWVRQAPGQGLEWMGLLWSDGSGEYYADSAKGRFTISRDNSKNTLYLQMNSLRSDDTAVYYCARAMGAIYYYYAMDVWGQGTTVTVSSASTKGPSVFPLAPSSKSTSGGTAALGCLVKDYFPEPVTVSWNSGALTSGVHTFPAVLQSSGLYSLSSVVTVPSSSLGTQTYICNVNHKPSNTKVDKKVEPKSCDKTHTCPPCPAPELLGGPSVFLFPPKPKDTLYITREPEVTCVVVDVSHEDPEVKFNWYVDGVEVHNAKTKPREEQYNSTYRVVSVLTVLHQDWLNGKEYKCKVSNKALPAPIEKTISKAKGQPREPQVYTLPPSRDELTKNQVSLTCLVKGFYPSDIAVEWESNGQPENNYKTTPPVLDSDGSFFLYSKLTVDKSRWQQGNVFSCSVMHEALHNHYTQKSLSLSPG light: QSALTQPPSVSGSPGQSVTISCTGTSSNIGNQFVSWYQQLPGTAPKLMIYEYNKRPSGVPDRFSGSKSGNTASLTISGLQTGDEADYYCGSWDSSLSGYVFGTGTRVTVLGQPKAAPSVTLFPPSSEELQANKATLVCLISDFYPGAVTVAWKADSSPVKAGVETTTPSKQSNNKYAASSYLSLTPEQWKSHRSYSCQVTHEGSTVEKTVAPTECS	–	–	–	–	–	–	–	–	–	–	–	–	–	–	–	–	–	–	24.3 µg/mL	4.36 µg/mL	fold smaller EC50 than 9M284 [12]: 2.8 fold
